T1: FcγRIIb extracellular domain with C-terminal His tag (human, UniProt P31994 43-217)
T1 construct: extracellular domain; soluble receptor expressed in FreeStyle293 cells, used as analyte in Biacore; also called FcgRIIb; 2b; not shown: His tag attached to the C terminus
T1 sequence (looked up): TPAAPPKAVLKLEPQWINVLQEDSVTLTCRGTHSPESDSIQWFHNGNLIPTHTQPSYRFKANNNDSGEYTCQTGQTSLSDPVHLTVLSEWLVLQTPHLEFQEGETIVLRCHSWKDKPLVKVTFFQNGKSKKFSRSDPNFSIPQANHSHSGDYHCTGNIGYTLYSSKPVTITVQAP


Legend:
[1] = biological target: T1, FcγRIIb extracellular domain with …; assay: SPR (Biacore), antibody captured on antigen peptide chip, FcγR as analyte; relative binding
[2] = biological target: T2, FcγRIa extracellular domain with C-terminal His tag (human, UniProt P12314 16-292); assay: as above
T2 construct: extracellular domain; soluble receptor expressed in FreeStyle293 cells, used as analyte in Biacore; also called FcgRI; 1a; not shown: His tag attached to the C terminus
T2 sequence (P12314 16-292): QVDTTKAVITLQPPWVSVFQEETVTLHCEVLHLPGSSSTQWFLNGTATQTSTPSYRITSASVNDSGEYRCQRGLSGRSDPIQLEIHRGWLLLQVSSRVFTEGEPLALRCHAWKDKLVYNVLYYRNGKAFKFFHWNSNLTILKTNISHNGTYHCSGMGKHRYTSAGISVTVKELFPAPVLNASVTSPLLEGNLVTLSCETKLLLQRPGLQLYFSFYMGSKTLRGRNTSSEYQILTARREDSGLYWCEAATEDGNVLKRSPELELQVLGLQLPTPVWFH

Row | He/Con_2b [1] | He/Con_1a [2] | Binder
1 | 85.4 % of control GpH7-A5/GpH7-B3/GpL16-k0 (=100) | 102 % of control GpH7-A5/GpH7-B3/GpL16-k0 (=100) | GpH7-A5/GpH7-B3 variant E333_06M/GpL16-k0 (antibody, human IgG1, kappa, heterodimerized anti-glypican-3 IgG1; alteration in the GpH7-B3 chain only; also called He Ab) heavy 1: not shown heavy 2: not shown light: DIVMTQSPLSLPVTPGEPASISCQASESLVHSNRNTYLHWYLQKPGQSPQLLIYKVSNRFSGVPDRFSGSGSGTDFTLKISRVEAEDVGVYYCSQNTHVPPTFGQGTKVEIERTVAAPSVFIFPPSDEQLKSGTASVVCLLNNFYPREAKVQWKVDNALQSGNSQESVTEQDSKDSTYSLSSTLTLSKADYEKHKVYACEVTHQGLSSPVTKSFNRGEC
2 | 48 % of control GpH7-A5/GpH7-B3/GpL16-k0 (=100) | 78.2 % of control GpH7-A5/GpH7-B3/GpL16-k0 (=100) | GpH7-A5/GpH7-B3 variant D270_19Q/GpL16-k0 (antibody, human IgG1, kappa, heterodimerized anti-glypican-3 IgG1; alteration in the GpH7-B3 chain only; also called He Ab) heavy 1: not shown heavy 2: not shown light: DIVMTQSPLSLPVTPGEPASISCQASESLVHSNRNTYLHWYLQKPGQSPQLLIYKVSNRFSGVPDRFSGSGSGTDFTLKISRVEAEDVGVYYCSQNTHVPPTFGQGTKVEIERTVAAPSVFIFPPSDEQLKSGTASVVCLLNNFYPREAKVQWKVDNALQSGNSQESVTEQDSKDSTYSLSSTLTLSKADYEKHKVYACEVTHQGLSSPVTKSFNRGEC
3 | 42.5 % of control GpH7-A5/GpH7-B3/GpL16-k0 (=100) | 105 % of control GpH7-A5/GpH7-B3/GpL16-k0 (=100) | GpH7-A5/GpH7-B3 variant E269_20W/GpL16-k0 (antibody, human IgG1, kappa, heterodimerized anti-glypican-3 IgG1; alteration in the GpH7-B3 chain only; also called He Ab) heavy 1: not shown heavy 2: not shown light: DIVMTQSPLSLPVTPGEPASISCQASESLVHSNRNTYLHWYLQKPGQSPQLLIYKVSNRFSGVPDRFSGSGSGTDFTLKISRVEAEDVGVYYCSQNTHVPPTFGQGTKVEIERTVAAPSVFIFPPSDEQLKSGTASVVCLLNNFYPREAKVQWKVDNALQSGNSQESVTEQDSKDSTYSLSSTLTLSKADYEKHKVYACEVTHQGLSSPVTKSFNRGEC
4 | 81.4 % of control GpH7-A5/GpH7-B3/GpL16-k0 (=100) | 103 % of control GpH7-A5/GpH7-B3/GpL16-k0 (=100) | GpH7-A5/GpH7-B3 variant E333_01G/GpL16-k0 (antibody, human IgG1, kappa, heterodimerized anti-glypican-3 IgG1; alteration in the GpH7-B3 chain only; also called He Ab) heavy 1: not shown heavy 2: not shown light: DIVMTQSPLSLPVTPGEPASISCQASESLVHSNRNTYLHWYLQKPGQSPQLLIYKVSNRFSGVPDRFSGSGSGTDFTLKISRVEAEDVGVYYCSQNTHVPPTFGQGTKVEIERTVAAPSVFIFPPSDEQLKSGTASVVCLLNNFYPREAKVQWKVDNALQSGNSQESVTEQDSKDSTYSLSSTLTLSKADYEKHKVYACEVTHQGLSSPVTKSFNRGEC
5 | 44.9 % of control GpH7-A5/GpH7-B3/GpL16-k0 (=100) | 68.5 % of control GpH7-A5/GpH7-B3/GpL16-k0 (=100) | GpH7-A5/GpH7-B3 variant D270_15Y/GpL16-k0 (antibody, human IgG1, kappa, heterodimerized anti-glypican-3 IgG1; alteration in the GpH7-B3 chain only; also called He Ab) heavy 1: not shown heavy 2: not shown light: DIVMTQSPLSLPVTPGEPASISCQASESLVHSNRNTYLHWYLQKPGQSPQLLIYKVSNRFSGVPDRFSGSGSGTDFTLKISRVEAEDVGVYYCSQNTHVPPTFGQGTKVEIERTVAAPSVFIFPPSDEQLKSGTASVVCLLNNFYPREAKVQWKVDNALQSGNSQESVTEQDSKDSTYSLSSTLTLSKADYEKHKVYACEVTHQGLSSPVTKSFNRGEC
6 | 18.3 % of control GpH7-A5/GpH7-B3/GpL16-k0 (=100) | 66.3 % of control GpH7-A5/GpH7-B3/GpL16-k0 (=100) | GpH7-A5/GpH7-B3 variant D270_12R/GpL16-k0 (antibody, human IgG1, kappa, heterodimerized anti-glypican-3 IgG1; alteration in the GpH7-B3 chain only; also called He Ab) heavy 1: not shown heavy 2: not shown light: DIVMTQSPLSLPVTPGEPASISCQASESLVHSNRNTYLHWYLQKPGQSPQLLIYKVSNRFSGVPDRFSGSGSGTDFTLKISRVEAEDVGVYYCSQNTHVPPTFGQGTKVEIERTVAAPSVFIFPPSDEQLKSGTASVVCLLNNFYPREAKVQWKVDNALQSGNSQESVTEQDSKDSTYSLSSTLTLSKADYEKHKVYACEVTHQGLSSPVTKSFNRGEC
7 | 96.2 % of control GpH7-A5/GpH7-B3/GpL16-k0 (=100) | 102 % of control GpH7-A5/GpH7-B3/GpL16-k0 (=100) | GpH7-A5/GpH7-B3 variant E333_07I/GpL16-k0 (antibody, human IgG1, kappa, heterodimerized anti-glypican-3 IgG1; alteration in the GpH7-B3 chain only; also called He Ab) heavy 1: not shown heavy 2: not shown light: DIVMTQSPLSLPVTPGEPASISCQASESLVHSNRNTYLHWYLQKPGQSPQLLIYKVSNRFSGVPDRFSGSGSGTDFTLKISRVEAEDVGVYYCSQNTHVPPTFGQGTKVEIERTVAAPSVFIFPPSDEQLKSGTASVVCLLNNFYPREAKVQWKVDNALQSGNSQESVTEQDSKDSTYSLSSTLTLSKADYEKHKVYACEVTHQGLSSPVTKSFNRGEC
8 | 48.9 % of control GpH7-A5/GpH7-B3/GpL16-k0 (=100) | 100 % of control GpH7-A5/GpH7-B3/GpL16-k0 (=100) | GpH7-A5/GpH7-B3 variant I332_12R/GpL16-k0 (antibody, human IgG1, kappa, heterodimerized anti-glypican-3 IgG1; alteration in the GpH7-B3 chain only; also called He Ab) heavy 1: not shown heavy 2: not shown light: DIVMTQSPLSLPVTPGEPASISCQASESLVHSNRNTYLHWYLQKPGQSPQLLIYKVSNRFSGVPDRFSGSGSGTDFTLKISRVEAEDVGVYYCSQNTHVPPTFGQGTKVEIERTVAAPSVFIFPPSDEQLKSGTASVVCLLNNFYPREAKVQWKVDNALQSGNSQESVTEQDSKDSTYSLSSTLTLSKADYEKHKVYACEVTHQGLSSPVTKSFNRGEC
9 | 20.3 % of control GpH7-A5/GpH7-B3/GpL16-k0 (=100) | 58.4 % of control GpH7-A5/GpH7-B3/GpL16-k0 (=100) | GpH7-A5/GpH7-B3 variant D270_11K/GpL16-k0 (antibody, human IgG1, kappa, heterodimerized anti-glypican-3 IgG1; alteration in the GpH7-B3 chain only; also called He Ab) heavy 1: not shown heavy 2: not shown light: DIVMTQSPLSLPVTPGEPASISCQASESLVHSNRNTYLHWYLQKPGQSPQLLIYKVSNRFSGVPDRFSGSGSGTDFTLKISRVEAEDVGVYYCSQNTHVPPTFGQGTKVEIERTVAAPSVFIFPPSDEQLKSGTASVVCLLNNFYPREAKVQWKVDNALQSGNSQESVTEQDSKDSTYSLSSTLTLSKADYEKHKVYACEVTHQGLSSPVTKSFNRGEC
10 | 44.2 % of control GpH7-A5/GpH7-B3/GpL16-k0 (=100) | 75.3 % of control GpH7-A5/GpH7-B3/GpL16-k0 (=100) | GpH7-A5/GpH7-B3 variant D270_13S/GpL16-k0 (antibody, human IgG1, kappa, heterodimerized anti-glypican-3 IgG1; alteration in the GpH7-B3 chain only; also called He Ab) heavy 1: not shown heavy 2: not shown light: DIVMTQSPLSLPVTPGEPASISCQASESLVHSNRNTYLHWYLQKPGQSPQLLIYKVSNRFSGVPDRFSGSGSGTDFTLKISRVEAEDVGVYYCSQNTHVPPTFGQGTKVEIERTVAAPSVFIFPPSDEQLKSGTASVVCLLNNFYPREAKVQWKVDNALQSGNSQESVTEQDSKDSTYSLSSTLTLSKADYEKHKVYACEVTHQGLSSPVTKSFNRGEC

From patent publication US20180155451A1 (published 2018)
